Laboratory results as given in paper PMC12593833.

Columns and labels:
[1] = molecular target: synthetic D-streptavidin (mirror-image streptavidin) (S. avidinii); test: SEC; analytical SEC of the folded proteins, with molecular weight standards
[2] = molecular target: synthetic L-streptavidin (S. avidinii); test: as above

| stoichiometry N [1] | stoichiometry N [2] | Substance |
| --- | --- | --- |
| 4 |  | synthetic D-streptavidin (mirror-image streptavidin) |
|  | 4 | synthetic L-streptavidin (natural protein) |
